Numbering of substitutions follows the chain as printed.
B1: 276 (protein)
chain: LDNGLARTPTMGWLHWERFMCNLDCQEEPDSCISEKLFMEMAERMVSEGWKDAGYEYLCIDDCWMAPQRDSEGRLQADPQRFPHGIRQLANYVHSKGLKLGIYADVGNKTCAGFPGSFGYYDIDAQTFADWGVDLLKFDGCYCDSLENLADGYKHMSLALNRTGRSIVYSCEWPLYMWPFQKPNYTEIRQYCNHWRNFADIDDSWASIKSILDWTSRNQERIVDVAGPGGWNDPDMLVIGNFGLSWDQQVTQMALWAIMAAPLFMSNDLRHISPQAKALLQDKDVIAINQDPLGKQGYQLRQGDNFEVWERPLSGDAWAVAMINRQEIGGPRSYTIPVASLGKGVACNPGCFITQLLPVKRKLGFYDWDSRLRSHINPTGTVLLQLENTMQMSLKDLL
modifications: Synthetic Polypeptide sequence of Variant No. 276 of mature Human GLA
B2: 268 (protein)
chain: LDNGLARTPTMGWLHWERFMCNLDCQEEPDSCISEKLFMEMAELMVSEGWKDAGYEYLCIDDCWMAPQRDSEGRLQADPQRFPHGIRQLANYVHSKGLKFGIYADVGNKTCAGFPGSFGYYDIDAQTFADWGVDLLKFDGCYCDSLENLADGYKHMSLALNRTGRSIVYSCEWPLYMWPFQKPNYTEIRQYCNHWRNFADIDDSWASIKSILDWTSFNQERIVDVAGPGGWNDPDMLVIGNFGLSWNQQVTQMALWAIMAAPLFMSNDLRHISPQAKALLQDKDVIAINQDPLGKQGYQLRQGDNFEVWERPLSGLAWAVAMINRQEIGGPRSYTIAVASLGKGVACNPACFITQLLPVKRKLGFYEWTSRLKSHVNPTGTVLLQLENTMQMSLKDLL
modifications: Synthetic Polypeptide sequence of Variant No. 268 of mature Human GLA
B3: 274 (protein)
chain: B1 chain with D247N, D316L, P337A, D367E, D369T
modifications: Synthetic Polypeptide sequence of Variant No. 274 of mature Human GLA
B4: 271 (protein)
chain: B1 chain with E187G, R217F, D247N, D316L, D367E, D369T
modifications: Synthetic Polypeptide sequence of Variant No. 271 of mature Human GLA
B5: 270 (protein)
chain: B1 chain with C143Y, R217F, D247N, D316L, D367E, D369T
modifications: Synthetic Polypeptide sequence of Variant No. 270 of mature Human GLA
B6: 277 (protein)
chain: B1 chain with G350A
modifications: Synthetic Polypeptide sequence of Variant No. 277 of mature Human GLA
B7: 273 (protein)
chain: B1 chain with R217F, D247N, D316L, P337A, G350A
modifications: Synthetic Polypeptide sequence of Variant No. 273 of mature Human GLA
B8: 275 (protein)
chain: B1 chain with D316L, G350A, D367E, D369T
modifications: Synthetic Polypeptide sequence of Variant No. 275 of mature Human GLA
B9: 269 (protein)
chain: B2 chain with L37I, F100L, R221K, N247D, M322I, V376I
modifications: Synthetic Polypeptide sequence of Variant No. 269 of mature Human GLA
B10: 272 (protein)
chain: B2 chain with L44R, F100L, K373R, V376I
modifications: Synthetic Polypeptide sequence of Variant No. 272 of mature Human GLA

Test: HTP-analysis of yeast culture supernatants, no challenge (MUGal hydrolysis)
Assay type: biochemical
Settings: activity of the variant/activity of Rd2BB (SEQ ID NO: 10), yeast culture supernatant
Procedure, shortened: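 GLA variants expressed in yeast INVSc1, secreted into SD-Ura broth over 66-84 h at 30° C; clarified supernatants tested without challenge. Supernatant mixed with McIlvaine buffer pH 4.8 and 2 mM MUGal (citrate/KCl, pH 4.6), 37° C for 30-180 min, carbonate-quenched, fluorescence Ex 355/Em 448 nm.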

Molecule | Relative Activity of GLA Variants After No Challenge (NC)
B1 | +++ (+++ = >2.5 relative activity over Rd2BB (SEQ ID NO: 10))
B2 | + (+ = 0.5 to 1.5 relative activity over Rd2BB (SEQ ID NO: 10))
B3 | + (+ = 0.5 to 1.5 relative activity over Rd2BB (SEQ ID NO: 10))
B4 | − (− = <0.5 relative activity over Rd2BB (SEQ ID NO: 10))
B5 | + (+ = 0.5 to 1.5 relative activity over Rd2BB (SEQ ID NO: 10))
B6 | +++ (+++ = >2.5 relative activity over Rd2BB (SEQ ID NO: 10))
B7 | + (+ = 0.5 to 1.5 relative activity over Rd2BB (SEQ ID NO: 10))
B8 | ++ (++ = 1.5 to 2.5 relative activity over Rd2BB (SEQ ID NO: 10))
B9 | − (− = <0.5 relative activity over Rd2BB (SEQ ID NO: 10))
B10 | + (+ = 0.5 to 1.5 relative activity over Rd2BB (SEQ ID NO: 10))

Test: HTP-analysis of supernatants pretreated with acid (MUGal hydrolysis)
Assay type: biochemical
Settings: challenge at pH 4.2; activity of the variant/activity of Rd2BB (SEQ ID NO: 10); yeast culture supernatant
Procedure, shortened: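 MUGal hydrolysis was tracked by fluorescence (Ex 355 nm, Em 448 nm) after a 30-180 min reaction at 37° C. in pH 4.8 McIlvaine/citrate buffer, stopped with 1 M sodium carbonate. Beforehand, yeast (INVSc1) culture supernatants carrying GLA variants were held 1-3 h at 37° C. in acidic McIlvaine buffer, pH 3.3-4.3.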

Molecule | Relative Activity of GLA Variants After Challenge at pH 4.2
B1 | +++ (+++ = >2.5 relative activity over Rd2BB (SEQ ID NO: 10))
B2 | + (+ = 0.5 to 1.5 relative activity over Rd2BB (SEQ ID NO: 10))
B3 | + (+ = 0.5 to 1.5 relative activity over Rd2BB (SEQ ID NO: 10))
B4 | + (+ = 0.5 to 1.5 relative activity over Rd2BB (SEQ ID NO: 10))
B5 | + (+ = 0.5 to 1.5 relative activity over Rd2BB (SEQ ID NO: 10))
B6 | +++ (+++ = >2.5 relative activity over Rd2BB (SEQ ID NO: 10))
B7 | + (+ = 0.5 to 1.5 relative activity over Rd2BB (SEQ ID NO: 10))
B8 | ++ (++ = 1.5 to 2.5 relative activity over Rd2BB (SEQ ID NO: 10))
B9 | + (+ = 0.5 to 1.5 relative activity over Rd2BB (SEQ ID NO: 10))
B10 | + (+ = 0.5 to 1.5 relative activity over Rd2BB (SEQ ID NO: 10))

Test: HTP-analysis of supernatants pretreated with base (MUGal hydrolysis)
Assay type: biochemical
Settings: challenge at pH 7.6; activity of the variant/activity of Rd2BB (SEQ ID NO: 10); yeast culture supernatant
Procedure, shortened: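 GLA variants secreted from yeast INVSc1; culture supernatants pre-incubated with McIlvaine buffer pH 7.0–8.2 or 200 mM bicarbonate pH 9.1–9.7 at 37° C. for 1–18 h. Residual activity: MUGal (4 mM stock) hydrolysis at pH 4.3–4.8, 37° C., 30–180 min, carbonate quench; fluorescence Ex 355/Em 448 nm.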

Molecule | Relative Activity of GLA Variants After Challenge at pH 7.6
B1 | +++ (+++ = >2.5 relative activity over Rd2BB (SEQ ID NO: 10))
B2 | + (+ = 0.5 to 1.5 relative activity over Rd2BB (SEQ ID NO: 10))
B3 | + (+ = 0.5 to 1.5 relative activity over Rd2BB (SEQ ID NO: 10))
B4 | + (+ = 0.5 to 1.5 relative activity over Rd2BB (SEQ ID NO: 10))
B5 | + (+ = 0.5 to 1.5 relative activity over Rd2BB (SEQ ID NO: 10))
B6 | +++ (+++ = >2.5 relative activity over Rd2BB (SEQ ID NO: 10))
B7 | + (+ = 0.5 to 1.5 relative activity over Rd2BB (SEQ ID NO: 10))
B8 | ++ (++ = 1.5 to 2.5 relative activity over Rd2BB (SEQ ID NO: 10))
B9 | + (+ = 0.5 to 1.5 relative activity over Rd2BB (SEQ ID NO: 10))
B10 | + (+ = 0.5 to 1.5 relative activity over Rd2BB (SEQ ID NO: 10))

Test: HTP-analysis of supernatants pretreated with bovine serum (MUGal hydrolysis)
Assay type: biochemical
Settings: activity of the variant/activity of Rd2BB (SEQ ID NO: 10), yeast culture supernatant
Procedure, shortened: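 Yeast INVSc1 culture supernatants containing secreted GLA variants were mixed with bovine serum (20:80) and held 1 h at 37° C. Serum-treated samples then reacted with MUGal (4 mM stock) in citrate/McIlvaine buffer (pH 4.3/4.8) for 180 min at 37° C., were quenched with sodium carbonate, and read by fluorescence (Ex 355, Em 448 nm).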

Molecule | Relative Activity of GLA Variants After Challenge with Serum
B1 | +++ (+++ = >2.5 relative activity over Rd2BB (SEQ ID NO: 10))
B2 | + (+ = 0.5 to 1.5 relative activity over Rd2BB (SEQ ID NO: 10))
B3 | + (+ = 0.5 to 1.5 relative activity over Rd2BB (SEQ ID NO: 10))
B4 | + (+ = 0.5 to 1.5 relative activity over Rd2BB (SEQ ID NO: 10))
B5 | + (+ = 0.5 to 1.5 relative activity over Rd2BB (SEQ ID NO: 10))
B6 | +++ (+++ = >2.5 relative activity over Rd2BB (SEQ ID NO: 10))
B7 | + (+ = 0.5 to 1.5 relative activity over Rd2BB (SEQ ID NO: 10))
B8 | ++ (++ = 1.5 to 2.5 relative activity over Rd2BB (SEQ ID NO: 10))
B9 | + (+ = 0.5 to 1.5 relative activity over Rd2BB (SEQ ID NO: 10))
B10 | + (+ = 0.5 to 1.5 relative activity over Rd2BB (SEQ ID NO: 10))
